# Reference: publication PMC11162469, “Discovery of RXFP2 genetic association in resistant hypertensive men and RXFP2 antagonists for the treatment of resistant hypertension” (Scientific Reports, 2024)
# Residue numbers refer to the chain shown, from its start.
# B1: 1F2: RXFP2 monoclonal antibody from hybridoma, recombinantly expressed in a rat IgG2b backbone (antibody, V domains shown)
# VH: QVQLKQSGPGLVQPSQSLSITCTVSGFSLTAYGVNWVRQSPGKGLEWLGVIWSGGNTDYNAPFISRLSITKDNSKSQVFFKMNSLEADDTAIYYCARAKGYYAMDYWGQGTSVTVSS
# VL: DIQMTQSPASLSVSVGESVTITCRATENIYSNLVWYQQKQGQSPQLLVYAVTSLADGVPSRFSGSGSGTQYSLKINSLQSEDFGTYYCQHFWGTPYTFGGGTKLEIK
# B2: 2D4: RXFP2 monoclonal antibody from hybridoma, recombinantly expressed in a rat IgG2b backbone (antibody, V domains shown)
# VH: QVQLKESGPGLVAPSQSLSITCTVSGFSLTTYGISWVRQPPGKGLEWLGVIWTGGGTNYNSALKSRLSISKDNSKSQVFLKMNSLQTDDTARYYCARTEGYYVMDYWGQGTSVTVSS
# VL: B1 VL with S18T, T26S, Q42K, V51A, S53N, S77N, T94P, Y96W
# B3: 4F6: Human/rat cross-reactive RXFP2 monoclonal antibody, rat IgG2b backbone; binds the LDLa domain (antibody, V domains shown)
# VH: EVQLQQSGPELVKPGASVKMSCKASGYTFTNYVLHWVKQKPGQGLEWIGYINPYNDGSKYNEKFKGRATLTSDKSSSTAYMELSSLTSEDSAVYYCARGGWLLDYFDYWGQGTTLTVSS
# VL: DVLMTQSPLSLPVSLGEQASISCRSSQSIVHSDGDTYLEWYLQKPGQSPNLLIYKVSNRFSGVPDRFSGSGSGTDFTLKISRVEAEDLGVYYCFQGSHVPPTFGGGTKLEIK
# Columns and labels:
# [1] = Pharmacokinetic study of RXFP2 mAbs in rat; type: in vivo, Wistar Han rats; details: for half-life, extrapolated values: Wistar Han rats, 1 mg/kg sc., over 28 days; for estimated dose to achieve tenfold higher IC50 HEK-rRXFP2 cAMP activity for approximately 28 days in rat: from trough concentration, dose-linearity assumed; for AUClast / Cmax / Tmax: male Wistar Han rats, 1 mg/kg s.c., n = 3, mean ± SD
# Experimental: For the pharmacokinetic study of RXFP2 mAbs in rat, 1G1, 2D4, 4B1, 4G6, 1F2, and 3F3 were prepared in phosphate buffered saline (0.100 mg/mL) with low endotoxin (≤ 0.76 EU/mL). Adult male Wistar Han rats (n = 3/mAb) were administered 1 mg/kg subcutaneously (10 mL/kg). Blood samples (100 µL) were collected in EDTA containing tubes at 0.25, 3, 6 24, 48, 96, 168 (day 7), 336 (day 14), 504 (day 21), and 672 (day 28) hours post dose, immediately centrifuged (6100 rpm), and 50 µL plasma stored at − 80 °C until assay. Rats maintained health throughout the study and were anesthetized (isoflurane to effect) and euthanized on day 28.
# Frozen rat plasma samples were thawed and analyzed using a qualified analytical method based on sample dilution, followed by Electrochemiluminescence immunoassay analysis. The lower limit of quantification (LLQ) was 0.1 µg/mL using a 10 µL aliquot of 51-fold diluted rat plasma with a higher limit of quantification (HLQ) of 10 µg/mL. RXFP2 mAbs were captured with LDLa protein and detected with sulfo-tag labeled mouse anti-rat IgG2b. The computer systems that were used to acquire and quantify data included Gyrolab Workstation Version 8.1.5 and Watson LIMS version 7.6.1. Rat pharmacokinetic parameters were calculated by non-compartmental analysis (NCA) analysis using WinNonlin Phoenix 64 (version 8.3). Values are reported in mean ± standard deviation.
# rat RXFP2 [2] = target: T1, rat RXFP2 (Rattus norvegicus, UniProt F7EMH8); assay: INSL3-stimulated CYP11B1 mRNA expression in H295R stably expressing rat RXFP2; type: cell-based; design: expressed in transfected cells; details: INSL3 EC80 (3.5 nM), 48 h, qPCR; N = 2
# T1 sequence (F7EMH8 20-737): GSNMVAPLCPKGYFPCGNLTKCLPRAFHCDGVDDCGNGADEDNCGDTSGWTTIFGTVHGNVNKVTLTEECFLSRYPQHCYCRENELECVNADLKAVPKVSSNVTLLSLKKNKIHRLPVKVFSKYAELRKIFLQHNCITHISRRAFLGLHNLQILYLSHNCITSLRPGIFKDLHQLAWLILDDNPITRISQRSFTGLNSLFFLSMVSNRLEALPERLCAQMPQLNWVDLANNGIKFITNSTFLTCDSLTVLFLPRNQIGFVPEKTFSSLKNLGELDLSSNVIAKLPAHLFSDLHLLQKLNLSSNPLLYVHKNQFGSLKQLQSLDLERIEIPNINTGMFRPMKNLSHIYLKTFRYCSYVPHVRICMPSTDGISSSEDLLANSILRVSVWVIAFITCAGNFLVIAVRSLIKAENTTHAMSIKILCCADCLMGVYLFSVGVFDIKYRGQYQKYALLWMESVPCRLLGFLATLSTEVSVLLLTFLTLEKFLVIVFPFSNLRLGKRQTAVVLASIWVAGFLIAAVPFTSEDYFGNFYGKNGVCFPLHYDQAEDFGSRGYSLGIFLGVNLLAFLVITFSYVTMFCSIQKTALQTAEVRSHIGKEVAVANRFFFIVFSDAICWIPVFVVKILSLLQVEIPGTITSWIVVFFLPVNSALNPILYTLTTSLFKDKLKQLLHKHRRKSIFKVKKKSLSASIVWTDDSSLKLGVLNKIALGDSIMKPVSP
# Experimental: (§1) RXFP2 antagonists were added to H295R-rRXFP2 before addition of INSL3 EC80 (3.5 nM) for 48 h, whereupon the cells and supernatants were collected. CYP11B1 and CYP11B2 mRNA were determined by qPCR and the RXFP2 blocker potencies were calculated (Fig. 5a). Fifteen antibodies have IC50s < 50 nM, and three of the top antibodies (1F2, 4G6, and 2D4) were selected for evaluation in steroid hormone secretion assays by ELISA.
# (§2) Data entered as XY table, with x = [Inhibitor] (nM) and y = CYP11B2 or CYP11B1 fold change.
# rat RXFP2 [3] = target: T1, rat RXFP2; assay: INSL3-stimulated CYP11B2 mRNA expression in H295R stably expressing rat RXFP2; type: cell-based; design: expressed in transfected cells; details: INSL3 EC80 (3.5 nM), 48 h, qPCR; N = 2
# Experimental: as §1, §2
# rat RXFP2 [4] = target: T1, rat RXFP2; assay: Cortisol secretion (ELISA) in H295R stably expressing rat RXFP2; type: cell-based; design: expressed in transfected cells; details: H295R-rRXFP2, 3.5 nM INSL3, 48 h, read-out: IC50 on INSL3-induced cortisol release
# Experimental: as §1
# (§3) The day after seeding, H295R cells were treated and incubated for 48 h before supernatants and cell lysates were collected. Treatments included INSL3, IgG, 1F2, and 4G6 at 0.035 pM–3.5 µM, 2D4 at 0.01 nM–1 uM, or phosphate buffered saline control. In RXFP2 antagonist assays, 3.5 nM INSL3 was used as the stimulus. Cortisol present in the adrenal cell supernatant at 48 h post treatment was detected by ELISA (R&D KGE008B). Sample dilution was optimized at 1/90 using a standard curve. Aldosterone was below the limit of detection by ELISA (R&D KGE016) and required liquid–liquid extraction (LLE) twice using methyl tetra butyl ether. Post extraction samples were dried (SPE Nitrogen dryer) and reconstituted for ELISA analysis. All samples were run in duplicates.
# rat RXFP2 [5] = target: T1, rat RXFP2; assay: INSL3-stimulated cAMP assay in HEK293 stably expressing rat RXFP2; details: INSL3 EC80-stimulated cAMP, stable expression, N = 2; for IC50: read-out: HEK293-rat RXFP2 cAMP IC50;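 on all read-outs here: cAMP measured with an HitHunter kit in 384-well plates, 11-point dose–response curves up to 1 µM antibody, four-parameter variable-slope fit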
# human RXFP2 = human RXFP2 (Homo sapiens, UniProt Q8WXD0); assay: INSL3-stimulated cAMP assay in HEK293 stably expressing human RXFP2; details: INSL3 EC80-stimulated cAMP, stable expression, N = 2; for IC50: read-out: HEK293-human RXFP2 cAMP IC50
# Sequence of human RXFP2 (Q8WXD0 whole entry): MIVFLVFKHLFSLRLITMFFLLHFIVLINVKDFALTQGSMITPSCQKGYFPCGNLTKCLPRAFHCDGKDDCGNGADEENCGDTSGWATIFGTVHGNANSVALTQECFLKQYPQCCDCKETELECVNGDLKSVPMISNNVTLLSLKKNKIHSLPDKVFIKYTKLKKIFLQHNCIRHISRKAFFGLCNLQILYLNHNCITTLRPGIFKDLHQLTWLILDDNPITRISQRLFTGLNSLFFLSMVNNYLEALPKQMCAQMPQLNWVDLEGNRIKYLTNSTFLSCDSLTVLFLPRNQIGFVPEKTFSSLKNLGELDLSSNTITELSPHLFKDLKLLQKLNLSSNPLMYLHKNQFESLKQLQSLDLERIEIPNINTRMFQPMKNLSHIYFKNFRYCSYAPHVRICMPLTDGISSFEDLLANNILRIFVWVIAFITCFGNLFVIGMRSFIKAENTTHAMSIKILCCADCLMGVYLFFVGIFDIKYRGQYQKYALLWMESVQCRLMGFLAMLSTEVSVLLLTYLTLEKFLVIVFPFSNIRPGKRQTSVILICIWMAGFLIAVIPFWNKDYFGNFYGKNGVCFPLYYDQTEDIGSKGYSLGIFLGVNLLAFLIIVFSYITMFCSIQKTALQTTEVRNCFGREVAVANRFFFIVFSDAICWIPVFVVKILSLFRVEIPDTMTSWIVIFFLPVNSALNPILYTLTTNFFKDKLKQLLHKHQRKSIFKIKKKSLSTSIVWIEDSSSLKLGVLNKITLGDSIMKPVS
# rat RXFP2 [6] = target: T1, rat RXFP2; assay: Aldosterone secretion (ELISA) in H295R stably expressing rat RXFP2; type: cell-based; design: expressed in transfected cells; details: H295R-rRXFP2, 3.5 nM INSL3, 48 h, read-out: IC50 on INSL3-induced aldosterone release
# Experimental: as §1, §3
# human LDLa-linker = target: T2, human LDLa-linker (Homo sapiens, UniProt Q8WXD0); assay: Biacore S200 binding to human LDLa-linker protein
# T2 construct: human LDLa linker [huRXFP2-LDLa-linker(38-105)-ratFc-8XHIS]; enterokinase cleavage site (C); rat Fc (C, cleaved yes); 8xHis (C, cleaved yes); made in house; host or cells: Expi293
# T2 sequence (Q8WXD0 38-105): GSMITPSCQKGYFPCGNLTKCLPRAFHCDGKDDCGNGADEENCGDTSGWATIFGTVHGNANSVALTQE
# Experimental: Goat anti Rat Fc gamma fragment specific (Jackson Immunoresearch, 112-005-071) was immobilized at 30 µg/mL to a Series S CM5 chip (Cytiva Life Sciences). In three separate runs, twenty different purified recombinant rat anti RXFP2 antibodies were then captured to the CM5 chip at a concentration of 5 µg/mL. The antibody panel was captured; rat LDLa-linker or human LDLa-linker protein was flowed as analyte at the following concentrations: 20 nM, 10 nM, 5 nM, 2.5 nM, […], and 0 nM. Antibody kinetics were evaluated using a 1:1 fit model (Biacore S200).
# [7] = target: T3, human LDLa peptide (UnitProt Q8WXD0 43-80) (Homo sapiens, UniProt Q8WXD0); assay: ELISA binding to linker-less human LDLa peptide
# T3 construct: human LDLa peptide (Q8WXD0 43-80)
# T3 sequence (Q8WXD0 43-80 limits assumed): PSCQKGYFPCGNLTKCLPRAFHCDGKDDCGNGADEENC
# Experimental: The human/rat RXFP2 cross reactive antibodies belong to two epitope bins and were further evaluated for binding to the linker-less human LDLa peptide (UnitProt Q8WXD0 43-80) by ELISA. […] The different domain requirements for binding are consistent with results from the binning experiment showing 4F6 and 4G6 are in a separate bin from 4B1.
# Rat LDLa-linker_ratFc, human LDLa-linker_ratFc, or ratFc, or human LDLa peptide (Q8WXD0 43-80) was diluted to 1 µg/mL in 1X PBS and immobilized in separate 96-well ELISA plates (Nunc Maxisorp), 50 µL/well. The plates were then incubated overnight at 4 °C. The following day the plates were washed three times with ELISA wash buffer (PBS + 0.05% Tween-20) and then blocked with ELISA blocking buffer (PBS + 0.05% Tween-20 + 1% BSA), 200 µL/well, and incubated 1 h at room temperature on a shaker. Plates were again washed three times followed by the addition of the primary antibodies. Hybridoma supernatant was added neat, 50 µL/well; mouse serum was added 1:100 and then serially diluted 1:2 for 8 points, 50 µL/well. Purified antibodies were added 5 µg/mL in the first well and serially diluted down the plate 1:2 for 8 points, 50 µL/well. Primary antibody was incubated for 1 h at room temperature on a shaker. […] Stopping solution (2N Sulfuric acid) was added to the plates 50 µL/well, and then read on a plate reader (SpectraMax Molecular Devices) at 450 nm.
Molecule,"half-life, extrapolated values [1] [h]",estimated dose to achieve tenfold higher IC50 HEK-rRXFP2 cAMP activity for approximately 28 days in rat [1],AUClast [1] [µg·h/mL],Cmax [1] [µg/mL],Tmax [1] [h],IC50 (rat RXFP2 [2]) [nM],IC50 (rat RXFP2 [3]) [nM],IC50 (rat RXFP2 [4]) [nM],HEK293-rat RXFP2 cAMP % Max Response (rat RXFP2 [5]) [%],IC50 (rat RXFP2 [5]) [nM],IC50 (human RXFP2) [nM],IC50 (rat RXFP2 [6]) [nM],cross reactivity to the human LDLa-linker (human LDLa-linker),binding to linker-less human LDLa peptide [7],HEK293-human RXFP2 cAMP % Max Response (human RXFP2)
B1,≥ 264,approximately 10 mg/kg,3530 ± 746,7.86 ± 1.75,120 ± 42,0.32,0.1,0.21,76.1,19.1,~405,,,,
B2,≥ 264,approximately 9 mg/kg,3210 ± 463,7.36 ± 1.54,168 ± 0,0.14,0.11,0.17,86.8,21,> 1000,0.05,,,
B3,,,,,,,,,80.4,48.5,~354,,cross reactivity,bind,~ 82.7%
